Results: patent US20230235058A1 (OXFORD UNIVERSITY INNOVATION, published 2023)

T1: soluble cynomolgus macaque BTLA extracellular domain (BTLA K31-R151) (cynomolgus macaque)
T1 construct: also called cynomolgus BTLA; cyno BTLA
T1 chain: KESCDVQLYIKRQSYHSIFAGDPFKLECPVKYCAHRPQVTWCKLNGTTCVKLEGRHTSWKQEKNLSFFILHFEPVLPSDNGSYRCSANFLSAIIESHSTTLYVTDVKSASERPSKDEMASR

T2: human FcγR2B (human, UniProt P31994 43-217)
T2 construct: extracellular domain; also called hFcγR2B; CD32B
T2 sequence (looked up): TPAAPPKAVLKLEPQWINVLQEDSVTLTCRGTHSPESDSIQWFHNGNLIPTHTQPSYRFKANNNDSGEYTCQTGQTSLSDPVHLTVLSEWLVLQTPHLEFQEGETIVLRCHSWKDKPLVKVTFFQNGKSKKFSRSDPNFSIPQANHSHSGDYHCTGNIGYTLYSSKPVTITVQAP

T3: human FcγR2A 131H (human, UniProt P12318 34-217)
T3 construct: extracellular domain
T3 sequence (looked up): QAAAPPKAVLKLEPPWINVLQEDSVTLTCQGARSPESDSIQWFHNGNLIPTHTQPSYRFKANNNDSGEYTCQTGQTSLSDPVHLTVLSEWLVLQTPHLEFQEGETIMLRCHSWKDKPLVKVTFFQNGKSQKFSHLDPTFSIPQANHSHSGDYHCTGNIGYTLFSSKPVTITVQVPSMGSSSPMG

T4: human FcγR2A 131R (human, UniProt P12318 34-217)
T4 construct: extracellular domain
T4 sequence (looked up): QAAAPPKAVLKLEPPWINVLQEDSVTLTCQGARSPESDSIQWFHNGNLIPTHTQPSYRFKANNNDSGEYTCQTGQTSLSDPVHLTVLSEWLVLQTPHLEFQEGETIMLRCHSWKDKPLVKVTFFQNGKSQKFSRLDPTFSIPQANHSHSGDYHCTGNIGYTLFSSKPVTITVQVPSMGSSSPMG

B1: 1H6 (antibody, IgG1, V domains shown)
VH: EVQLQQSVAELVRPGASVKLSCTASGFNIKNTYMHWVKQRPEQGLEWIGRIDPANGNTKYDPKFQGKATITADTSSNTAYVQLSSLTSEDTAIYYCALTYYGSSQHYFDYWGQGTTLTVSS
VL: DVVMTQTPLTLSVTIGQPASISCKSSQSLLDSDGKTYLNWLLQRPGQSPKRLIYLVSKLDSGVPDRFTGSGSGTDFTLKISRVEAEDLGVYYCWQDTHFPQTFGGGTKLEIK
notes: mIgG1
B2: 14D4 (antibody, IgG1, V domains shown)
VH: QVQLQQPGAELVKPRASVKLSCKASGYTFTSYWMHWVKQRPGQGLEWIGMIHPNNGIPNYNEKFKSKATLTVDKSSTTAYMQLSSLTSEDSAVYHCAREGYYGSEGYFDVWGTGTTVTVSS
VL: QIVLTQSPAIMSASPGEKVTMTCSASSSISYIHWYQQKPGTSPKRWIYDTSKLASGVPARFSGSGSGTSYSLTISSMEAEDAATYYCHQRSTYPYTFGGGTKLEIK
notes: mIgG1
B3: Engineered humanised 6.2 (Variant A) (antibody, V domains shown)
VH: EVQLVESGGGLVKPGGSLRLSCAASGFTLSSYGMSWVRQAPGKGLEWVASIRSEGQTYYPDSVKGRFTISRDNAKNTLYLQMSSLRAEDTAVYYCTRGGYYGSSPYYWGQGTTVTVSS
VL: DIVMTQSPLSLPVTPGEPASISCKSSQSLLYSSNQKNYLAWYQQKPGQSPKLLIYWASTRESGVPDRFSGSGSGTDFTLKISRVEAEDVGVYYCQQYYNYLTFGGGTKVEIKR
B4: 26B1 (antibody, IgG1, V domains shown)
VH: EVQLQQSGPVLVKPGASVKMSCKASGYTFTDYYLNWVKQSHGKSLEWIGLIDPYNGGSSCNQKFKGKATLTVDKSSSTAYMDLNSLTSEDSAVYYCARGNAMDYWGQGTSVTVSS
VL: DIVMTQSHKFMSTSVGDRVSITCKASQDVSTAVAWYQEKPGQSPKLLIYWASTRHTGVPDRFTGSGSGTDYILNISSVQAEDLALYYCQQHYIIPYMFGGGTKLEIK
notes: mIgG1
B5: humanised 2.8.6 hIgG1 delta ab P238D (antibody)
chain 1: QVTLKESGPALVKPTQTLTLTCTVSGFSLTTYGVHWIRQPPGKALEWLGVMWPGGRTSYNPSLKSRLTITKDNSKSQVVLTMTNMDPVDTATYYCVRGDYEYDYYAMDYWGQGTLVTVSSASTKGPSVFPLAPSSKSTSGGTAALGCLVKDYFPEPVTVSWNSGALTSGVHTFPAVLQSSGLYSLSSVVTVPSSSLGTQTYICNVNHKPSNTKVDKKVEPKSCDKTHTCPPCPAPPVAGDSVFLFPPKPKDTLMISRTPEVTCVVVDVSHEDPEVKFNWYVDGVEVHNAKTKPREEQYNSTYRVVSVLTVLHQDWLNGKEYKCKVSNKGLPSSIEKTISKAKGQPREPQVYTLPPSRDELTKNQVSLTCLVKGFYPSDIAVEWESNGQPENNYKTTPPVLDSDGSFFLYSKLTVDKSRWQQGNVFSCSVMHEALHNHYTQKSLSLSP
chain 2: EIVLTQSPATLSLSPGERATLSCRASSSVSYMHWYQQKPGQAPRPLIYATSNRATGIPARFSGSGSGTDYTLTISSLEPEDFAVYYCHQWSSNPYTFGQGTKLEIKRTVAAPSVFIFPPSDEQLKSGTASVVCLLNNFYPREAKVQWKVDNALQSGNSQESVTEQDSKDSTYSLSSTLTLSKADYEKHKVYACEVTHQGLSSPVTKSFNRGEC
B6: humanised 2.8.6 hIgG1 delta ac P238D (antibody)
chain 1: QVTLKESGPALVKPTQTLTLTCTVSGFSLTTYGVHWIRQPPGKALEWLGVMWPGGRTSYNPSLKSRLTITKDNSKSQVVLTMTNMDPVDTATYYCVRGDYEYDYYAMDYWGQGTLVTVSSASTKGPSVFPLAPSSKSTSGGTAALGCLVKDYFPEPVTVSWNSGALTSGVHTFPAVLQSSGLYSLSSVVTVPSSSLGTQTYICNVNHKPSNTKVDKKVEPKSCDKTHTCPPCPAPPVAGGDSVFLFPPKPKDTLMISRTPEVTCVVVDVSHEDPEVKFNWYVDGVEVHNAKTKPREEQYNSTYRVVSVLTVLHQDWLNGKEYKCKVSNKGLPSSIEKTISKAKGQPREPQVYTLPPSRDELTKNQVSLTCLVKGFYPSDIAVEWESNGQPENNYKTTPPVLDSDGSFFLYSKLTVDKSRWQQGNVFSCSVMHEALHNHYTQKSLSLSP
chain 2: EIVLTQSPATLSLSPGERATLSCRASSSVSYMHWYQQKPGQAPRPLIYATSNRATGIPARFSGSGSGTDYTLTISSLEPEDFAVYYCHQWSSNPYTFGQGTKLEIKRTVAAPSVFIFPPSDEQLKSGTASVVCLLNNFYPREAKVQWKVDNALQSGNSQESVTEQDSKDSTYSLSSTLTLSKADYEKHKVYACEVTHQGLSSPVTKSFNRGEC
B7: 8C4 (antibody, IgG1, V domains shown)
VH: DVQLQESGPGMVKPSQSLSLTCTVTGYSITSGYDWHWIRHFPGNKLEWMGYISYSGSTNYNPSLKSRISITHDTSKNHFFLKLNSVTTEDTATYYCARGTPVVAEDYFDYWGQGTTLTVSS
VL: QAVVTQESALSTSPGETVTLTCRSSTGAVTTSNYANWVQEKPDHLFTGLIGATNNRAPGVPARFSGSLIGDKAALTITGAQTEDEAIYFCALWYSNHLVFGGGTKLTVLG
notes: mIgG1
B8: 24H7 (antibody, IgG1, V domains shown)
VH: QVQLQQSGAELVRPGASVTLSCKASGYTFTDYEIHWVKQTLVHGLEWIGPIDPDTGNTAYNQNLKGKAILTADKSSSTAYMELRSLTSEDSAVYYCTRGGYDSDWGFAYWGQGTLVTVSA
VL: DIVMTQATPSVPVTPGESVSISCRSSKSLLHSNGNTFLFWFLQRPGQSPQLLIYRMSDLASGVPDRFSGSGSGTAFTLRISRVEAEDVGIYYCMQHLEYPFTFGSGTKLEIK
notes: mIgG1
B9: 3A9 (antibody, IgG1, V domains shown)
VH: QVQLKQSGAELVRPGASVKLSCKASGYTFTDYYINWVKQRPGQGLEWIARIYPGSGNTYYNEKFKGKATLTAEKSSSTAYMQLSSLTSEDSAVYFCARGYGNSDYWGQGTTLTVSS
VL: DILLTQSPAILSVSPGERVSFSCRASQSIGTRIHWYQQRTNGSPRLLIKYASESISGIPSRFSGSGSGTDFTLSINSVESEDIADYYCQQSNSWPYTFGGGTKLEIK
notes: mIgG1

Columns and labels:
[1] = molecular target: T1, soluble cynomolgus macaque BTLA …; test: SPR 37C, mAb captured, BTLA ECD analyte;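 further: Anti-BTLA mouse antibodies captured on a sensor chip via polyclonal anti-mouse IgG, isotype control antibody in reference channel, rates fitted after reference and blank subtraction to derive Kd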
Procedure: (§1) Mouse antibody capture kit (GE Healthcare) was used to coat a Series S CMS Sensor Chip (GE Healthcare) with polyclonal anti-mouse IgG. Anti-BTLA antibody was then captured onto the biosensor surface and a negative control antibody (clone Mopc21; Biolegend) captured in the reference channel. […] Association and dissociation rates were fitted using BiaEvaluation Software (GE Healthcare) after reference and blank subtractions, and dissociation constants were calculated (FIG. 1b).

[2] = molecular target: chimeric BTLA of humanised-BTLA mice (human extracellular region, murine transmembrane and signaling … (human; mouse, UniProt Q7TSA3 184-306, limits assumed); test: cell-based or functional assay
[3] = molecular target: full length human BTLA expressed on cells (human, UniProt Q7Z6A9 31-289); test: cell-based or functional assay
[4] = molecular target: T5, monomeric soluble human BTLA extracellular domain (BTLA K31-R151) (human, UniProt Q7Z6A9 31-151); test: SPR Biacore 8K 37C, single cycle kinetics;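 further: antibody captured on sensor chip, soluble BTLA extracellular domain flowed over at several concentrations in HBS-EP pH 7.4, rates fitted after subtracting isotype-control reference channel and blank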
T5 construct: also called hBTLA; monomeric BTLA
Procedure: (§2) The binding affinity and kinetics of humanised BTLA agonist antibodies to human or cynomolgus BTLA were determined by surface plasmon resonance using the Biacore 8K (GE Healthcare). […] Anti-BTLA antibody was then captured onto the biosensor surface and a negative control antibody (human IgG1k isotype control; Sino Biological cat #HG1K) captured in the reference channel. Various concentrations of monomeric soluble human BTLA extracellular domain (BTLA^K31-R151, produced recombinantly in house) or soluble cynomolgus macaque BTLA extracellular domain (BTLA^K31-R151, produced recombinantly in house) were then injected over the immobilized antibodies in the buffer HBS-EP (GE Healthcare, cat #BR100669), pH 7.4 (HBS-P) at 37° C., in a single cycle kinetics analysis.

[5] = molecular target: T1, soluble cynomolgus macaque BTLA …; test: SPR Biacore 8K 37C, single cycle kinetics;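 further: antibody captured on sensor chip, soluble BTLA extracellular domain flowed over at several concentrations in HBS-EP pH 7.4, rates fitted after subtracting isotype-control reference channel and blank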
Procedure: as §2

human FcγR2B = molecular target: T2, human FcγR2B; test: SPR 37C, steady state;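 further: fc variants captured on chip-bound human BTLA ectodomain, recombinant FcγR ectodomains injected as analyte at varied concentrations, double-referenced equilibrium binding fitted to Langmuir model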
Procedure: (§3) For the low affinity FcγRs (FcγR2A, FcγR2B, FcγR3A and FcγR3B) the interactions were assessed by surface plasmon resonance with the recombinantly expressed FcRs (extracellular domains only) as analyte. Briefly, recombinant human BTLA extracellular domain (BTLA^K31-R151) was covalently immobilised to both flow cells of all channels of a CMS Series S sensor chip using the GE Healthcare Amine coupling kit. The 2.8.6 Fc variant to be assessed was then captured (approx. 500-1000 response units) in flow cell 2 of each channel. Steady state affinity analysis was then performed by injecting varying concentrations of FcR in multiple cycles and measuring equilibrium binding. Double referencing was used (subtracting the signal in the reference Fc1 and also subtracting the signal from a blank zero concentration injection). KDs were calculated from the Langmuir curves (plotting equilibrium binding against analyte concentration to determine the concentration required for half maximal binding).

human FcγR2A 131H = molecular target: T3, human FcγR2A 131H; test: SPR 37C, steady state;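 further: fc variants captured on chip-bound human BTLA ectodomain, recombinant FcγR ectodomains injected as analyte at varied concentrations, double-referenced equilibrium binding fitted to Langmuir model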
Procedure: as §3

human FcγR2A 131R = molecular target: T4, human FcγR2A 131R; test: SPR 37C, steady state;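 further: fc variants captured on chip-bound human BTLA ectodomain, recombinant FcγR ectodomains injected as analyte at varied concentrations, double-referenced equilibrium binding fitted to Langmuir model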
Procedure: as §3

human FcγR3A 158V = molecular target: T6, human FcγR3A 158V (human, UniProt P08637 17-208); test: SPR 37C, steady state;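 further: fc variants captured on chip-bound human BTLA ectodomain, recombinant FcγR ectodomains injected as analyte at varied concentrations, double-referenced equilibrium binding fitted to Langmuir model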
T6 construct: extracellular domain
Procedure: as §3

human FcRn = molecular target: T7, human FcRn (human, UniProt P55899 24-297; P61769 21-119, limits assumed, biotinylated); test: SPR, pH6.0
T7 construct: bought; also called FcRn pH6

[6] = molecular target: T5, monomeric soluble human BTLA …; test: SPR 37C, mAb captured, BTLA ECD analyte;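 further: Anti-BTLA mouse antibodies captured on a sensor chip via polyclonal anti-mouse IgG, isotype control antibody in reference channel, rates fitted after reference and blank subtraction to derive Kd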
Procedure: as §1
Wherever AntiCD3/CD28 (CD4 T cell proliferation) repeat 1 is given: test concentration or dose not given here.
Wherever AntiCD3/CD28 (CD4 T cell proliferation) repeat 2 is given: test concentration or dose not given here.
Wherever AntiCD3/CD28 (CD69+ CD4 T cells) repeat 1 is given: test concentration or dose not given here.
Wherever AntiCD3/CD28 (CD69+ CD4 T cells) repeat 2 is given: test concentration or dose not given here.
Wherever MLR (CD4 T cell proliferation) repeat 1 is given: test concentration or dose not given here.
Wherever MLR (CD4 T cell proliferation) repeat 2 is given: test concentration or dose not given here.
Wherever T cell reporter (NFκB signaling) is given: test concentration or dose not given here.

Sequence of chimeric BTLA of humanised-BTLA mice (human extracellular region, murine transmembrane and signaling … (Q7TSA3 other isoform, or with tags, fused parts or gaps mutant limits assumed): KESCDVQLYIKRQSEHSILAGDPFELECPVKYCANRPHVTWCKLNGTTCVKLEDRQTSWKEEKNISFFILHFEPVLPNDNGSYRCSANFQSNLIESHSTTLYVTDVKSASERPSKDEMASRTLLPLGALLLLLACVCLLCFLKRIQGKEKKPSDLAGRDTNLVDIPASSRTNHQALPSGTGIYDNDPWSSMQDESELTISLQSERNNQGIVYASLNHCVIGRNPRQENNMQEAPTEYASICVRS
T6 sequence (P08637 17-208 F176V): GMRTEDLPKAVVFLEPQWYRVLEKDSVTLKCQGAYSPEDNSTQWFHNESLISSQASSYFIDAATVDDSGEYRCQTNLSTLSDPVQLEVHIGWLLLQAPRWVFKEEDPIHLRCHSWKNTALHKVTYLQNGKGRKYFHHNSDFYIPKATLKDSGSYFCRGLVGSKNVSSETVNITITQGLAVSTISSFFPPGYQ

| Kd [1] | AntiCD3/CD28 (CD4 T cell proliferation) repeat 1 [2] | AntiCD3/CD28 (CD4 T cell proliferation) repeat 2 [2] | AntiCD3/CD28 (CD69+ CD4 T cells) repeat 1 [2] | AntiCD3/CD28 (CD69+ CD4 T cells) repeat 2 [2] | MLR (CD4 T cell proliferation) repeat 1 [2] | MLR (CD4 T cell proliferation) repeat 2 [2] | T cell reporter (NFκB signaling) [3] | also measured | Binder |
| --- | --- | --- | --- | --- | --- | --- | --- | --- | --- |
| 0.00608 µM | 26 % inhibition | 19 % inhibition | 47 % inhibition | 53 % inhibition | 31 % inhibition | 16 % inhibition | 26 % inhibition |  | B1 |
| 0.00183 µM | 24 % inhibition | 29 % inhibition | 43 % inhibition | 52 % inhibition | 39 % inhibition | 26 % inhibition | 16 % inhibition |  | B2 |
|  |  |  |  |  |  |  |  | Kd [4]: 0.0109 µM; koff [4]: 0.00756 s⁻¹; kon [4]: 694000 M⁻¹ s⁻¹; Kd [5]: 0.695 µM; koff [5]: 0.0507 s⁻¹; kon [5]: 72900 M⁻¹ s⁻¹ | B3 |
| 0.168 µM | 11 % inhibition | 19 % inhibition | 35 % inhibition | 30 % inhibition | 12 % inhibition | 10 % inhibition | 29 % inhibition |  | B4 |
|  |  |  |  |  |  |  |  | Kd (human FcγR2B): 876 µM; Kd (human FcγR2A 131H): 771 µM | B5 |
|  |  |  |  |  |  |  |  | Kd (human FcγR2B): 1170 µM; Kd (human FcγR2A 131R): 399 µM; Kd (human FcγR3A 158V): 1410 µM; avidity (FcRn pH6) (human FcRn): 14.2 nM | B6 |
| 0.161 µM | 12 % inhibition | 4 % inhibition | 29 % inhibition | 29 % inhibition | 42 % inhibition | -2 % inhibition | 21 % inhibition |  | B7 |
|  | 13 % inhibition | 23 % inhibition | 52 % inhibition | 44 % inhibition | 23 % inhibition | 31 % inhibition | 22 % inhibition | Kd [6]: 0.00066 µM; koff [6]: 0.00016 s⁻¹; kon [6]: 243000 M⁻¹ s⁻¹ | B8 |
|  | 9 % inhibition | 9 % inhibition | 22 % inhibition | 34 % inhibition | 7 % inhibition | 24 % inhibition | 27 % inhibition | Kd [6]: 4.01 µM; koff [6]: 1.63 s⁻¹; kon [6]: 406000 M⁻¹ s⁻¹ | B9 |
